To fix the notation:
B1: integrin β4 1436-1666 (β4-CS-FnIII-3,4) (domain or fragment, human, UniProt P16144-2 1436-1666, looked up)
chain: LPRDYSTLTSVSSHDSRLTAGVPDTPTRLVFSALGPTSLRVSWQEPRCERPLQGYSVEYQLLNGGELHRLNIPNPAQTSVVVEDLLPNHSYVFRVRAQSQEGWGREREGVITIESQVHPQSPLCPLPGSAFTLSTPSAPGPLVFTALSPDSLQLSWERPRRPNGDIVGYLVTCEMAQGGGPATAFRVDGDSPESRLTVPGLSENVPYKFKVQARTTEGFGPEREGIITIES
B2: β4-CS-FnIII-3,4 (1436-1666) I1661R/T1663R (domain or fragment, human, UniProt P16144-2 1436-1666, looked up)
chain: B1 chain with I226R, T228R
B3: β4-CS-FnIII-3,4 (1436-1666) P1576R (domain or fragment, human, UniProt P16144-2 1436-1666, looked up)
chain: B1 chain with P141R
B4: BP230 10-162 S46A (domain or fragment, human, UniProt Q03001-8 10-162, looked up)
chain: SSDSVFSNTTSTRTSLDSNENLLLVHCGPTLINSCIAFGSESFDGHRLEMLQQIANRVQRDSVICEDKLILAGNALQSDSKRLESGVQFQNEAEIAGYILECENLLRQHVIDVQILIDGKYYQADQLVQRVAKLRDEIMALRNECSSVYSKGR
modifications: Oregon Green 488 on thiol groups
B5: fluorescein-labeled BP230 peptide 26-55 (peptide, UniProt Q03001-8 26-55, looked up)
peptide: fluorescein-DSNENLLLVHCGPTLINSCISFGSESFDGH
modifications: cysteine pairing not given here
B6: unlabeled BP230 peptide 26-55 (peptide, UniProt Q03001-8 26-55, looked up)
peptide: DSNENLLLVHCGPTLINSCISFGSESFDGH

The target of assay [1] is fluorescein-labeled BP230 peptide 26-47 (human) (UniProt Q03001). As to the kind of experiment: fluorescence polarisation.
The next assay has as its target T1, BP230 41-162 (human, UniProt Q03001-8 41-162, Oregon Green 488 on thiol groups).
T1 sequence (looked up): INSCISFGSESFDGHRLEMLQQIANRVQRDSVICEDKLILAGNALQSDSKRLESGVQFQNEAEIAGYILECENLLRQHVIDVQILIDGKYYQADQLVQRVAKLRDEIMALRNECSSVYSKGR
As to the kind of experiment: fluorescence polarisation.

Assay [2] has as its target T2, fluorescein-labeled BP230 peptide 37-55 (human, UniProt Q03001-8 37-55).
T2 peptide (looked up): fluorescein-GPTLINSCISFGSESFDGH
The assay can be described thus: fluorescence polarisation.

A further assay concerns the target T3, BP230 10-162 T39D (human, UniProt Q03001-8 10-162, T39D, Oregon Green 488 on thiol groups).
T3 sequence (looked up): B4 chain with T30D, A37S
As to the kind of experiment: fluorescence polarisation.

For assay [3], the target named is B5. The assay can be described thus: fluorescence polarisation.
The target in assay [4] is B1. The assay can be described thus: fluorescence polarisation.
The target of assay [5] is T4, β4-CS-FnIII-3,4 (1436-1666) T1663R (human, UniProt P16144-2 1436-1666, T1663R).
T4 sequence (looked up): B1 chain with T228R
As to the kind of experiment: fluorescence polarisation.

Assay [6] concerns the target T5, β4-FnIII-3,4 (1457-1666) mutant T1663R (human, UniProt P16144-2 1457-1666, T1663R).
T5 sequence (looked up): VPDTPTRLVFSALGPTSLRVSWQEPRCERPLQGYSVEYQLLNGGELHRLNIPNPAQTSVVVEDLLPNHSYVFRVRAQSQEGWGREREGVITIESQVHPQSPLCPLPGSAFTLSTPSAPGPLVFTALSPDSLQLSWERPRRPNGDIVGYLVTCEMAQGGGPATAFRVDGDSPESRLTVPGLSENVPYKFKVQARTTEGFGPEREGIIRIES
As to the kind of experiment: crystal structure.

The values below come from paper doi:10.1101/402123 (bioRxiv, 2018).

Changes are numbered by the printed parent chain. Names may count otherwise. No end group written: not given here. fluorescein = N-terminal fluorescein label Where only a bound is given, the exact number is not on record here.

Turning to B1, the fold increase in Kd against the BP230 26-55 peptide in assay [1] was 5 fold; in assay [2], 3 fold. In addition, in the assay with BP230 41-162, the “fold increase in Kd against the longer BP230 constructs” value was determined as 5 fold. The “fold increase in Kd against WT BP230 10-162” value with BP230 10-162 T39D is approximately 3 fold.
On to B2, for which the “fold reduction in Kd against WT β4” value in assay [3] was approximately 8 fold.
B3: in assay [3], the “fold increase in Kd against WT β4” value was more than 2 fold.
With B4, the binding result in assay [4] is recorded as “binds”.
On to B5, for which, in assay [5], the binding result is listed as “binds”.
On to B6, for which the binding result in assay [6] was “binds”.
